The record followed here is patent publication US20240392035A1 (DENALI THERAPEUTICS, published 2024).

Test [1] deals with HER2 on HER2-overexpressing tumor cell lines (UniProt P04626 23-1255, limits assumed). Nature of the test: cell-based or functional assay.
In test [2] the target is human TfR on cells (human, UniProt P02786 1-760). The experiment in a line: cell-based or functional assay.
Test [3] concerns the target T1, recombinant human TfR apical domain (human, UniProt P02786 198-378).
T1 construct: also called recombinant TfR apical domain; transferrin receptor protein 1
Nature of the test: SPR (Biacore), protein captured on anti-human Fab chip, human TfR apical domain injected, 1:1 Langmuir fit. On the procedure:
Affinities of the bispecific proteins were measured by SPR using a Biacore T200 or a Biacore 8K. Biacore™ Series S CM5 sensor chips were immobilized with monoclonal mouse anti-human IgG (Fc) antibody for HER2 affinity measurements or mouse anti-human Fab for TfR affinity measurements (human antibody or Fab capture kit from GE Healthcare). Serial 3-fold dilutions of analyte (recombinant HER2 extracellular domain or recombinant TfR apical domain) were injected at a flow rate of […]. Each sample was analyzed using a 3-minute association and a 10-minute dissociation for HER2 extracellular domain binding and a 40-second association and a 3-minute dissociation for human TfR apical domain binding. After each injection, the chip was regenerated using 3 M MgCl₂ or 50 mM glycine at pH 2.0. Binding response was corrected by subtracting the RU from a flow cell capturing an irrelevant IgG at similar density. A 1:1 Languir model of simultaneous fitting of kon and koff was used for kinetics analysis. […] The two constructs are described below.
For orientation: In SPR one partner is held on a chip, and binding of the other changes the refractive index at the surface.

T1 sequence (P02786 198-378 limits assumed): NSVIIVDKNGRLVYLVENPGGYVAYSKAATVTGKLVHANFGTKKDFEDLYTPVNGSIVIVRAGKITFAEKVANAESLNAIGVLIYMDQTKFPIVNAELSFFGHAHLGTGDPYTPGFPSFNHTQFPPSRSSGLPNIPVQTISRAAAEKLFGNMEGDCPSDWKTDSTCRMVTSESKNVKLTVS

B1: anti-HER2_DIV/DII_scFv_1 (bispecific antibody, human IgG1, kappa, L234A L235A)
heavy 1: EVQLVESGGGLVQPGGSLRLSCAASGFTFTDYTMDWVRQAPGKGLEWVADVNPNSGGSIYNQRFKGRFTLSVDRSKNTLYLQMNSLRAEDTAVYYCARNLGPSFYFDYWGQGTLVTVSSASTKGPSVFPLAPSSKSTSGGTAALGCLVKDYFPEPVTVSWNSGALTSGVHTFPAVLQSSGLYSLSSVVTVPSSSLGTQTYICNVNHKPSNTKVDKKVEPKSCDKTHTCPPCPAPEAAGGPSVFLFPPKPKDTLMISRTPEVTCVVVDVSHEDPEVKFNWYVDGVEVHNAKTKPREEQYNSTYRVVSVLTVLHQDWLNGKEYKCKVSNKALPAPIEKTISKAKGQPREPQVYTLPPSRDELTKNQVSLWCLVKGFYPSDIAVEWESYGTEWSNYKTTPPVLDSDGSFFLYSKLTVSKEEWQQGFVFSCSVMHEALHNHYTQKSLSLSPGK
heavy 2: not shown
light: not shown
Regarding B1, the “maximum growth inhibition, OE19 cells, WST-1 assay” value in test [1] and in test [2] was about 80% each time.

B2: Bispecific Protein #9 (bispecific antibody, human IgG1, kappa, L234A L235A)
heavy 1: EVQLVESGGGLVQPGGSLRLSCAASGFTFTDYTMDWVRQAPGKGLEWVADVNPNSGGSIYNQRFKGRFTLSVDRSKNTLYLQMNSLRAEDTAVYYCARNLGPSFYFDYWGQGTLVTVSSASTKGPSVFPLAPSSKSTSGGTAALGCLVKDYFPEPVTVSWNSGALTSGVHTFPAVLQSSGLYSLSSVVTVPSSSLGTQTYICNVNHKPSNTKVDKKVEPKSCDKTHTCPPCPAPEAAGGPSVFLFPPKPKDTLMISRTPEVTCVVVDVSHEDPEVKFNWYVDGVEVHNAKTKPREEQYNSTYRVVSVLTVLHQDWLNGKEYKCKVSNKALPAPIEKTISKAKGQPREPQVYTLPPSRDELTKNQVSLWCLVKGFYPSDIAVEWESYGTEWSNYKTTPPVLDSDGSFFLYSKLTVSKEEWQQGFVFSCSVMHEALHNHYTQKSLSLSPGK
heavy 2: not shown
light: not shown
In general, Kd refers to the concentration at which binding is half-saturated. In the case of B2, in test [3], the dissociation constant Kd came out at 500 nM.

B3: Bispecific Protein #2 (bispecific antibody, human IgG1, kappa, L234A L235A)
heavy 1: EVQLVESGGGLVQPGGSLRLSCAASGFTFTDYTMDWVRQAPGKGLEWVADVNPNSGGSIYNQRFKGRFTLSVDRSKNTLYLQMNSLRAEDTAVYYCARNLGPSFYFDYWGQGTLVTVSSASTKGPSVFPLAPSSKSTSGGTAALGCLVKDYFPEPVTVSWNSGALTSGVHTFPAVLQSSGLYSLSSVVTVPSSSLGTQTYICNVNHKPSNTKVDKKVEPKSCDKTHTCPPCPAPEAAGGPSVFLFPPKPKDTLMISRTPEVTCVVVDVSHEDPEVKFNWYVDGVEVHNAKTKPREEQYNSTYRVVSVLTVLHQDWLNGKEYKCKVSNKALPAPIEKTISKAKGQPREPQVYTLPPSRDELTKNQVSLWCLVKGFYPSDIAVEWESYGTEWSNYKTTPPVLDSDGSFFLYSKLTVSKEEWQQGFVFSCSVMHEALHNHYTQKSLSLSPGK
heavy 2: not shown
light: not shown
B3: the Kd in test [3] was determined as 480 nM.
